The subject of assay [1] is human dermal fibroblasts (BJ3 cells) which express RXFP1. Briefly: TGF-β1-induced collagen expression in human dermal fibroblasts (hydroxyproline content). To be noted: TGF-β1 2 ng/mL plus peptide 100 ng/mL, 72 hr. The format is cell-based. As for the experimental part: The deposited collagen into the cell layer was hydrolysed and analysed for hydroxyproline content, as previously described (Samuel et al., 1996, Endocrinology 137:3884-3890). Hydroxyproline values were then converted to total collagen content by multiplying by a factor of 6.94 (based on hydroxyproline representing approximately 14.4% of the amino acid composition of collagen in most mammalian tissues). These experiments were performed 3-4 separate times in duplicate.

Assay [2] addresses T1, RXFP1 receptor (UniProt Q9HBX9 1-757, limits assumed).
T1 sequence (looked up): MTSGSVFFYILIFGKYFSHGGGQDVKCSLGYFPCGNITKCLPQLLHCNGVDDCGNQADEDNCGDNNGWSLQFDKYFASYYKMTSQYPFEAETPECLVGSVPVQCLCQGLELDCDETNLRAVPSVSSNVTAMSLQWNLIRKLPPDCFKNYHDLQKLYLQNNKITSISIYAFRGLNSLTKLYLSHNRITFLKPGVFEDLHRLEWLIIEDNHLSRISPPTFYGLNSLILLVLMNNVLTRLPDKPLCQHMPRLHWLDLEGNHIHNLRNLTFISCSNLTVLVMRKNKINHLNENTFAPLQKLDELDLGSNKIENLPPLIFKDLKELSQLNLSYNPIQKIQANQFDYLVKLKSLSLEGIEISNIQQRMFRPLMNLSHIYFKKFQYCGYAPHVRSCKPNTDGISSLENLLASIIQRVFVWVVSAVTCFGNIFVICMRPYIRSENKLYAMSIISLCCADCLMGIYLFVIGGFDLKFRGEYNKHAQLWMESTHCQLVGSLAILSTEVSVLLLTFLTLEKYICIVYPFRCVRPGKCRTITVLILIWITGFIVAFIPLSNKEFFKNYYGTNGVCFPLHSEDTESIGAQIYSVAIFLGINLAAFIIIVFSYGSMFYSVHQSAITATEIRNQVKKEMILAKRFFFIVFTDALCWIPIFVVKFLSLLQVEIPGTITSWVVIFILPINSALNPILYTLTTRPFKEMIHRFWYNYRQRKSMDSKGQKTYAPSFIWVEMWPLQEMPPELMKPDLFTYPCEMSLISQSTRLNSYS
Briefly: cell-based or functional assay.

The target of assay [3] is T2, RXFP3 (Homo sapiens, UniProt Q9NSD7).
T2 construct: expressed in transfected cells; host or cells: CHO-K1
T2 sequence (Q9NSD7 1-469): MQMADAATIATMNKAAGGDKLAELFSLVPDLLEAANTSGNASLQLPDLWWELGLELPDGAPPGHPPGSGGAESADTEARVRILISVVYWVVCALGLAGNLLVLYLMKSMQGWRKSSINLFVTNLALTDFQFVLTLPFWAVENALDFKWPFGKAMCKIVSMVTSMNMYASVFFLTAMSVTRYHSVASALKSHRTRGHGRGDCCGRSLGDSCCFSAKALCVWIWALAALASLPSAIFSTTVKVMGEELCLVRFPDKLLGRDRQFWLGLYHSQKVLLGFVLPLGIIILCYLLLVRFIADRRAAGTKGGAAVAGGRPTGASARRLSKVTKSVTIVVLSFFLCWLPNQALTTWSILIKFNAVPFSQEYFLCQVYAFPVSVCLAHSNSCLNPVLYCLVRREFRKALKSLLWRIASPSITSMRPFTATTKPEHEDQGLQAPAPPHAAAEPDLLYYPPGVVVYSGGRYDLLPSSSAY
In words: Inhibition of forskolin-induced cAMP accumulation in RXFP3 expressing CHO-K1 cells (cAMP reporter gene assay). The format is cell-based. To be noted: CHO-K1, read-out: forskolin-induced cAMP production inhibited to.
Experimental: CHO-K1 cells were subcultured in clear 96 well plates (10,000 cells/well/200 μl media) and after 24 h, they were co-transfected with pCRE-8-galactosidase reporter plasmid. 24 hours later, cells were treated with 5 μM forskolin together with increasing concentration of relaxin-3 polypeptides. […] The stimulation was carried out for 6 h after which the media was aspirated and the cells were frozen at −80° C. overnight. The cells were thawed to room temperature and the amount of cAMP-induced β-galactosidase expression was measured by adding 25 μl of 0.1× buffer A (100 mM Na2HPO4 (pH 8.0), 2 mM MgSO4, 0.1 mM MnCl2) and shaking at room temperature for 10 minutes to hypotonically lyse the cells. Then 100 μl of buffer B (similar to buffer A with additional 0.5% Triton X-100 and 40 mM β-mercaptoethanol) was added to each well with shaking for 10 minutes at room temperature. Finally, 25 μl of substrate for 6-galactosidase (chlorophenol red β-D galactopyranoside) was added to each well with shaking until the colour change was observed. The absorbance was measured at 570 nm on Victor^3 plate reader (PerkinElmer, Glen Waverly, VIC). The data were analysed using GraphPad PRISM 4 (GraphPad Inc., San Diego, USA). […] Statistical analysis was carried out using one-way ANOVA with Bonferroni's multiple comparison test.

The target in assay [4] is T1, RXFP1 receptor. Briefly: competition with Eu-labelled H2 relaxin on HEK-293T cells expressing RXFP1.
Assay [5] has as its target T3, RXFP4 receptor (UniProt Q8TDU9 1-374, limits assumed). In words: cell-based or functional assay.
Assay [6] deals with T4, RXFP3 receptor (UniProt Q9NSD7 1-469, limits assumed).
T4 sequence (looked up): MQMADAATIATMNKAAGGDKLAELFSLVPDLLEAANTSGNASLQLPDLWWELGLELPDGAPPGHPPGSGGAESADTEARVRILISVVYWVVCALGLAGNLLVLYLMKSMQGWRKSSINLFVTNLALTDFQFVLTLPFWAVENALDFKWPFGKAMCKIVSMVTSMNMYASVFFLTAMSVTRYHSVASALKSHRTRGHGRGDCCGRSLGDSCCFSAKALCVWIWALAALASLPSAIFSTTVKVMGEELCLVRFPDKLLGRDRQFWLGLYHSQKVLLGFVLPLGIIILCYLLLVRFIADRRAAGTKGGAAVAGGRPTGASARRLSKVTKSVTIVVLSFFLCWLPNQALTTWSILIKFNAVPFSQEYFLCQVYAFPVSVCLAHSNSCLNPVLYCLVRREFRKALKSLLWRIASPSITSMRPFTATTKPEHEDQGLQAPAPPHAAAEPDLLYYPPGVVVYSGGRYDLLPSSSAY
Briefly: cell-based or functional assay.

Assay [7] has as its target T3, RXFP4 receptor. Briefly: competition with 2.5 nM Eu-labelled mouse INSL5 on CHO-K1 cells expressing RXFP4.
Assay [8] has as its target T4, RXFP3 receptor. In words: competition with 0.5 nM Eu-labelled INSL5A/H3 relaxinB on CHO-K1 cells expressing RXFP3.
Assay [9] addresses T4, RXFP3 receptor. In words: cell-based or functional assay. This is another data set of the same source.

No end group written: not given here.

T3 sequence (Q8TDU9 whole entry): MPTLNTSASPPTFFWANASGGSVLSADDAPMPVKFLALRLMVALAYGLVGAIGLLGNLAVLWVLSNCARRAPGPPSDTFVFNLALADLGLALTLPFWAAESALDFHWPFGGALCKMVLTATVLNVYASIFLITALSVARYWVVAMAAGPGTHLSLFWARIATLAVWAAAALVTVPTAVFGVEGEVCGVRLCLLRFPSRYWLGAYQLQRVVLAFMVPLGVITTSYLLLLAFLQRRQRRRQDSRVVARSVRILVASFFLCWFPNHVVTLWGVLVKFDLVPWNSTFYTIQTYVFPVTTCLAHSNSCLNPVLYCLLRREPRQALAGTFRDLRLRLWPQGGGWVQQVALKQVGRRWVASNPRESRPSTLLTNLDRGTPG

As to “H2 relaxin: native human relaxin-2, cognate ligand of RXFP1 (chain 1 QLYSALANKCCHVGCTKRSLARFC; chain 2 DSWMEEVIKLCGRELVRAQIAICGMSTWS)”, the “inhibition of TGF-β1 induced collagen compared to TGF-β1 alone” value in assay [1] is 35%.
“H2 relaxin (from UniProt P04090 162-185; P04090 25-53) (ligand)” returned an inhibition of TGF-β1-induced collagen in human dermal fibroblasts (BJ3 cells) in [2] of 35%.
As to `CC[C@H](C)[C@@H]1NC(=O)[C@H](Cc2ccccc2)NC(=O)[C@H](CCC(=O)O)NC(=O)[C@H](CCCNC(=N)N)NC(=O)CNC(=O)[C@@H](NC(=O)[C@H](CC(C)C)NC(=O)[C@H](CCCNC(=N)N)NC(=O)[C@@H](NC(=O)CNC(=O)[C@H](Cc2ccc(O)cc2)NC(=O)[C@@H]2CCCN2C(=O)[C@H](C)NC(=O)[C@H](C)NC(=O)[C@@H](N)CCCNC(=N)N)C(C)C)CSSC[C@@H]2NC(=O)[C@@H](NC(=O)[C@H](CO)NC(=O)[C@H](CO)NC(=O)[C@H](CO)NC(=O)[C@H](CC(C)C)NC(=O)CNC(=O)[C@H](C)NC(=O)[C@H](CC(C)C)NC(=O)[C@@H](NC(=O)[C@@H](N)CC(=O)O)C(C)C)CSSC[C@H](NC(=O)CNC(=O)[C@H](Cc3c[nH]c4ccccc34)NC(=O)[C@H](CCCCN)NC2=O)C(=O)N[C@@H](CO)C(=O)N[C@@H](CCCCN)C(=O)N[C@@H](CO)C(=O)N[C@@H](CCC(=O)O)C(=O)N[C@@H]([C@@H](C)CC)C(=O)N[C@@H](CO)C(=O)N[C@@H](CO)C(=O)N[C@@H](CC(C)C)C(=O)N[C@H](C(=O)O)CSSC[C@@H](C(=O)NCC(=O)NCC(=O)N[C@@H](CO)C(=O)N[C@@H](CCCNC(=N)N)C(=O)N[C@@H](Cc2c[nH]c3ccccc23)C(=O)O)NC(=O)[C@H]([C@@H](C)O)NC(=O)[C@H](Cc2ccccc2)NC(=O)[C@H]([C@@H](C)CC)NC(=O)[C@H](C(C)C)NC(=O)[C@H](C)NC(=O)[C@H](CCCNC(=N)N)NC1=O` [H3 relaxin], in [3], the activity at 0.01 µM was roughly 50%.

B1: analogue 18 (peptide)
chain 1: CKWGASKSEISSLC
chain 2: RLCGREFIRAVIFTCGGSRW
notes: Synthetic
On to B1, for which the binding result in assay [4] was “no binding (tested: <5 (pIC50/pKi, M))”. In addition, in assay [5], the “pEC50 (M), activation of RXFP4” value is 8.1 M (as -log10).

B2: analogue 15 (peptide)
chain 1: CKWGASKSEISSLC
chain 2: RAAPYGVRLCGREFIRAVIFTCGGSRW
modifications: disulfide (positions not given here)
notes: Synthetic; two inter-chain disulphides, no intra-A-chain disulphide; also called [R3A(11-24,C15→A)B]; RXFP3-selective agonist, analogue 2
With B2, the “pEC50, ERK1/2 phosphorylation in stable CHO-RXFP3 cells (AlphaScreen)” value in assay [6] was 10.4 -log10 (M not printed). Also, in [4], the binding result is “no binding (tested: <5 (pIC50/pKi, M))”. Moreover, in [5], the “pEC50 (M), activation of RXFP4” value is 7.7 M (as -log10). Further, the pIC50 in assay [7] was 7.1 M (as -log10).

B3: analogue 19 (peptide)
chain 1: CKWGASKSEISSLC
chain 2: CGREFIRAVIFTCGGSRW
notes: Synthetic
As for B3, in assay [4], the binding result is reported as “no binding (tested: <5 (pIC50/pKi, M))”. The “pEC50 (M), activation of RXFP4” value in assay [5] was 8.46 M (as -log10).

B4: native human relaxin-3 (H3 relaxin) (ligand)
chain 1: DVLAGLSSSCCKWGCSKSEISSLC
chain 2: RAAPYGVRLCGREFIRAVIFTCGGSRW
modifications: disulfide (positions not given here); also: one intra-A-chain and two inter-chain disulphide bonds, places not given here
notes: Two-chain peptide; one intra-A-chain and two inter-chain disulphide bonds; also called native relaxin-3
Take B4: the “pEC50 (M), activation of RXFP4” value in assay [5] was 8.94 M (as -log10). Further, the “pEC50 (M), cAMP accumulation in HEK-293 cells expressing RXFP1” value in assay [2] is 8.74 M (as -log10).

B5: analogue 14 (peptide)
chain 1: DVLAGLSSSACKWGASKSEISSLC
chain 2: RAAPYGVRLCGREFIRAVIFTCGGSRW
modifications: disulfide (positions not given here)
notes: Synthetic; no intra-A-chain disulphide, two inter-chain disulphides kept
For the molecule B5, in assay [8], the pKi was 7.3 M (as -log10). Further, the “pEC50 (M), inhibition of forskolin-induced cAMP, reporter gene assay in CHO-K1 cells expressing RXFP3” value in assay [9] is 7.9 M (as -log10). Further, in assay [2], the “pEC50 (M), cAMP accumulation in HEK-293 cells expressing RXFP1” value was 6.23 M (as -log10).

B6: analogue 17 (peptide)
chain 1: CKWGASKSEISSLC
chain 2: GVRLCGREFIRAVIFTCGGSRW
notes: Synthetic
B6: in assay [4], the binding result is “no binding (tested: <5 (pIC50/pKi, M))”. Further, in assay [5], the “pEC50 (M), activation of RXFP4” value is 7.85 M (as -log10).

B7: human INSL5 (ligand)
chain 1: QDLQTLCCTDGCSMTDLSALC
chain 2: KESVRLCGLEYIRTVIYICASSRW
notes: mature; Native receptor ligand used as comparator at RXFP4; also called hINSL5; native INSL5
As for B7, the “pEC50 (M), activation of RXFP4” value in assay [5] was 8.51 M (as -log10). For the same molecule, the pIC50 in assay [7] is 7.33 M (as -log10).

For the origin of these results see patent US20140024592A1, “Modified Relaxin Polypeptides” (Howard Florey Institute of Experimental Physiology and …, priority 2010, published 2014).
